# B1: Annexin A1 wild type, P04083 (protein)
# chain: MAMVSEFLKQAWFIENEEQEYVQTVKSSKGGPGSAVSPYPTFNPSSDVAALHKAIMVKGVDEATIIDILTKRNNAQRQQIKAAYLQETGKPLDETLKKALTGHLEEVVLALLKTPAQFDADELRAAMKGLGTDEDTLIEILASRTNKEIRDINRVYREELKRDLAKDITSDTSGDFRNALLSLAKGDRSEDFGVNEDLADSDARALYEAGERRKGTDVNVFNTILTTRSYPQLRRVFQKYTKYSKHDMNKVLDLELKGDIEKCLTAIVKCATSKPAFFAEKLHQAMKGVGTRHKALIRIMVSRSEIDMNDIKAFYQKMYGISLCQAILDETKGDYEKILVALCGGN
# Settings: Homo sapiens, Thermal, DSC, Sodium phosphate 50 mM, reversible: no, whole UniProt chain shown
protein,measurement,setting,value
B1,Tm,pH 3.2,41.1 °C
same,unfolding enthalpy (calorimetric),pH 3.2,102 kcal/mol
same,unfolding enthalpy (van 't Hoff),pH 3.2,101 kcal/mol
same,Tm,pH 3.4,48.5 °C
same,unfolding enthalpy (calorimetric),pH 3.4,139 kcal/mol
same,unfolding enthalpy (van 't Hoff),pH 3.4,119 kcal/mol
same,Tm,pH 3.8,56.4 °C
same,unfolding enthalpy (calorimetric),pH 3.8,152 kcal/mol
same,unfolding enthalpy (van 't Hoff),pH 3.8,142 kcal/mol
same,Tm,pH 4.5,62.3 °C
same,unfolding enthalpy (calorimetric),pH 4.5,192 kcal/mol
same,unfolding enthalpy (van 't Hoff),pH 4.5,200 kcal/mol
same,Tm,pH 5,62.7 °C
same,unfolding enthalpy (calorimetric),pH 5,203 kcal/mol
same,unfolding enthalpy (van 't Hoff),pH 5,206 kcal/mol
same,Tm,pH 6,61.8 °C
same,unfolding enthalpy (calorimetric),pH 6,197 kcal/mol
same,unfolding enthalpy (van 't Hoff),pH 6,224 kcal/mol
same,Tm,pH 7,59.9 °C
same,unfolding enthalpy (calorimetric),pH 7,200 kcal/mol
same,unfolding enthalpy (van 't Hoff),pH 7,220 kcal/mol
same,Tm,pH 8,58.5 °C
same,unfolding enthalpy (calorimetric),pH 8,197 kcal/mol
same,unfolding enthalpy (van 't Hoff),pH 8,215 kcal/mol
